Assay results reported in patent US20070184022A1.

Molecular target: T1, H2-Kb molecules in the microsomes of RAW309Cr.1 cells (murine)
T1 chain 1: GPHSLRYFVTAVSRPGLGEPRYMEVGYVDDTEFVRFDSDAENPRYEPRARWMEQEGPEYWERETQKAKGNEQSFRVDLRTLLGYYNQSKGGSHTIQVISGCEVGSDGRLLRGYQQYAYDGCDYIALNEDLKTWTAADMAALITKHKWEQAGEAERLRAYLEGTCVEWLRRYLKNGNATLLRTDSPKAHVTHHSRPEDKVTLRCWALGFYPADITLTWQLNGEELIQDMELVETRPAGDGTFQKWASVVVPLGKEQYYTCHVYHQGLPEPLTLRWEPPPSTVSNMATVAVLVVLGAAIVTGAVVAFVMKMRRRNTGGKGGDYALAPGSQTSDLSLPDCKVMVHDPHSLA
T1 chain 2: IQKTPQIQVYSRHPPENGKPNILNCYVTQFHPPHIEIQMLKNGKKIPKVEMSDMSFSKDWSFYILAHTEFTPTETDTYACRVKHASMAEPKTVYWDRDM
Experiment: competition against 125I-labelled modified OVA peptide (competitor at the concentration of the report peptide), photo-crosslinking to Kb in microsomes
Conditions: remark: other sources report otherwise

SIINFEKL [native OVA peptide (residues 257-264, SIINFEKL)] was tested. Which percent of the report peptide competed did it give?
The percent of the report peptide competed was 50%.
